Measured values published in article PMC9723649.

How the values were obtained:
[1] = substrate: Nc1ncnc2c1ncn2[C@@H]1O[C@H](COP(=O)(O)OP(=O)(O)OP(=O)(O)O)[C@@H](O)[C@H]1O; experiment: purified protein
[2] = substrate: N[C@@H](CO)C(=O)O; experiment: purified protein

B1: SARS2 (human mitochondrial seryl-tRNA synthetase, mature form) (Homo sapiens; INS217NLSP/K218R) (protein)
chain: TTEKRNRNLLYEYAREGYSALPQLDIERFCACPEEAAHALELRKGELRSADLPAIISTWQELRQLQEQIRSLEEEKAAVTEAVRALLANQDSGEVQQDPKYQGLRARGREIRKELVHLYPREAQLEEQFYLQALKLPNQTHPDVPVGDESQARVLHMVGDKPVFSFQPRGHLEIGEKLDIIRQNLSPRRLSHVSGHRSYYLRGAGALLQHGLVNFTFNKLLRRGFTPMTVPDLLRGAVFEGCGMTPNANPSQIYNIDPARFKDLNLAGTAEVGLAGYFMDHTVAFRDLPVRMVCSSTCYRAETNTGQEPRGLYRVHHFTKVEMFGVTGPGLEQSSQLLEEFLSLQMEILTELGLHFRVLDMPTQELGLPAYRKFDIEAWMPGRGRFGEVTSASNCTDFQSRRLHIMFQTEAGELQFAHTVNATACAVPRLLIALLESNQQKDGSVLVPPALQSYLGTDRITAPTHVPLQYIGPNQPRKPGLPGQPAVS
Km [1]: 64.69 ± 4.48 µM | Km [2]: 1660 ± 30 µM
